# PMC11662940 (Nucleic Acids Research, 2024)
# T1: ScUba4 (Saccharomyces cerevisiae Uba4) (S. cerevisiae, UniProt P38820 1-440)
# T1 sequence: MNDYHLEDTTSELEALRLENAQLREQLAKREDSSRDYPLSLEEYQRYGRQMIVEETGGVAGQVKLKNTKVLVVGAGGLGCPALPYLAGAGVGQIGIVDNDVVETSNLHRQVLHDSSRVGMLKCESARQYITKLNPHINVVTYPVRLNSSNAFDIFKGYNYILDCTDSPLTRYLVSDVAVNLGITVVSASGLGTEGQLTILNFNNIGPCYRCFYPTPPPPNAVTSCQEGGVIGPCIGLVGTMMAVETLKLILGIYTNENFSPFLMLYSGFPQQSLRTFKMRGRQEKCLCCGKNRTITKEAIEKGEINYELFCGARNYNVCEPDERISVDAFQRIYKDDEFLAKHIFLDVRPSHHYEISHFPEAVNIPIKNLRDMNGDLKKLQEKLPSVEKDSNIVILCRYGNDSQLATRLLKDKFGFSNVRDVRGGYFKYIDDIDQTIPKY
# Target: T1, ScUba4 (Saccharomyces cerevisiae Uba4)
# Assay: SEC
binder,measurement,value
"Thiocarboxylated ScUrm1 (natural protein, thiocarboxylate at the C-terminus) MVNVKVEFLGGLDAIFGKQRVHKIKMDKEDPVTVGDLIDHIVSTMINNPNDVSIFIEDDSIRPGIITLINDTDWELEGEKDYILEDGDIISFTSTLHGG",binding result,binds
